Key:
[1] = biological target: human CD36 (cluster of differentiation 36), ectodomain, Fc-fusion (human); experiment: BLI; Octet RED96; Fc-tagged receptor immobilised on protein G (ProG) biosensor, twofold serial dilution of His-tagged parasite ligand in HBS; KD from the response in equilibrium against concentration
[2] = biological target: T1, Plasmodium vivax Duffy binding protein region II (PvDBP-RII), residues 194 to 521, His-tagged (Plasmodium vivax, UniProt P22290 194-521, biotin (biotinylated with co-transfected secreted E. coli BirA and D-biotin, for the ELISA bait)); experiment: as above; details: both partners purified
T1 construct: source: HEK293E, transfected, culture supernatant, purified (Ni-NTA agarose); not shown: His, C-terminal, kept

Molecule “Plasmodium vivax merozoite-specific thrombospondin-related anonymous protein (PvMTRAP), full-length ectodomain, His-tagged (domain or fragment)” has a Kd [1] of 37 nM.

B1: Duffy antigen receptor for chemokines (DARC, CD234), residues 1 to 63, Fc-fusion (Fc fusion, human, UniProt Q16570 1-63, looked up)
chain: MGNCLHRAELSPSTENSSQLDFEDVWNSSYGVNDSFPDGDYGANLEAAAPCHSCNLLDDSALP
notes: Duffy antigen receptor for chemokines (CD234), human, residues 1 to 63; also called human DARC; source: HEK293E, transfected, culture supernatant, purified (HiTrap Protein G HP); not shown: Fc, C-terminal, kept
Molecule B1 has a Kd [2] of 7.7 nM.
